Molecular target: T1, MT1-MMP specific fluorogenic substrate MCA-Pro-Leu-Ala-Cys(p-OmeBz)-Trp-Ala-Arg(Dpa)-NH2
T1 chain: PLACWAR

Protein | fluorescence emission (cleavage of the quenched fluorogenic substrate)
MMP-2 (part of MMP-2/9, Chemicon) (protein) YNFFPRKPKWDKNQITYRIIGYTPDLDPETVDDAFARAFQVWSDVTPLRFSRIHDGEADIMINFGRWEHGDGYPFDGKDGLLAHAFAPGTGVGGDSHFDDDELWTLGEGQVVRVKYGNADGEYCKFPFLFNGKEYNSCTDTGRSDGFLWCSTTYNFEKDGKYGFCPHEALFTMGGNAEGQPCKFPFRFQGTSYDSCTTEGRTDGYRWCGTTEDYDRDKKYGFCPETAMSTVGGNSEGAPCVFPFTFLGNKYESCTSAGRSDGKMWCATTANYDDDRKWGFCPDQGYSLFLVAAHEFGHAMGLEHSQDPGALMAPIYTYTKNFRLSQDDIKGIQELYGASPDIDLGTGPTPTLGPVTPEICKQDIVFDGIAQIRGEIFFFKDRFIWRTVTPRDKPMGPLLVATFWPELPEKIDAVYEAPQEEKAVFFAGNEYWIYSASTLERGYPKPLTSLGLPPDVQRVDAAFNWSKNKKTYIFAGDKFWRYNEVKKKMDPGFPKLIADAWNAIPDNLDAVVDLQGGGHSYFFKGAYYLKLENQSLKSVKFGSIKSDWLGC | Incubation with MMP-2/9, MMP-8, or ADAM-10 and 17 alone failed to cause fluorescence emission from the MT1-MMP substrate.
a disintegrin and metalloproteinase (ADAM)-10 (R&D Systems) (protein) TTSAEKNTCQLYIQTDHLFFKYYGTREAVIAQISSHVKAIDTIYQTTDFSGIRNISFMVKRIRINTTADEKDPTNPFRFPNIGVEKFLELNSEQNHDDYCLAYVFTDRDFDDGVLGLAWVGAPSGSSGGICEKSKLYSDGKKKSLNTGIITVQNYGSHVPPKVSHITFAHEVGHNFGSPHDSGTECTPGESKNLGQKENGNYIMYARATSGDKLNNNKFSLCSIRNISQVLEKKRNNCFVESGQPICGNGMVEQGEECDCGYSDQCKDECCFDANQPEGRKCKLKPGKQCSPSQGPCCTAQCAFKSKSEKCRDDSDCAREGICNGFTALCPASDPKPNFTDCNRHTQVCINGQCAGSICEKYGLEECTCASSDGKDDKELCHVCCMKKMDPSTCASTGSVQWSRHFSGRTITLQPGSPCNDFRGYCDVFMRCRLVDADGPLARLKKAIFSPELYENIAE | Incubation with MMP-2/9, MMP-8, or ADAM-10 and 17 alone failed to cause fluorescence emission from the MT1-MMP substrate.
